Results published in publication PMC8872791, “MadR mediates acyl CoA-dependent regulation of mycolic acid desaturation in mycobacteria” (Proceedings of the National Academy of Sciences of the …, 2022).

B1: desA2 promoter -36/+14 (dsDNA)
DNA 1: TTCACGAAATCTGTGTATGCGAGTTACAGTTACCGCATGGCACAGAAACC
DNA 2: GGTTTCTGTGCCATGCGGTAACTGTAACTCGCATACACAGATTTCGTGAA
B2: desA1 promoter -19/+31 (dsDNA)
DNA 1: CAGTTATCTGTGTCTAATGGTTGCAGTCAATATATCTGTGTCTCTCGGTA
DNA 2: TACCGAGAGACACAGATATATTGACTGCAACCATTAGACACAGATAACTG

Experiments:
[1] = target: T1, MadR (Mycobacterium tuberculosis H37Rv) (UniProt P9WMD9); test: EMSA
T1 sequence: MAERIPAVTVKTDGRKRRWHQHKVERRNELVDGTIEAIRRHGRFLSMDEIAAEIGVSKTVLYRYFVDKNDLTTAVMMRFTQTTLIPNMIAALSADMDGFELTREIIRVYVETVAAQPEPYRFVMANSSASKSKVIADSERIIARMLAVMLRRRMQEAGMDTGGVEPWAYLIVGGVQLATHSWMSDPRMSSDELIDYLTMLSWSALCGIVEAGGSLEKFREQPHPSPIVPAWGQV

[2] = target: T2, MadR (Mycobacterium tuberculosis H37Rv, UniProt P9WMD9 1-234); test: EMSA; conditions: protein: recombinant; tags: His-tag implied (pET28a, cobalt IMAC); chain copies: 2; blunt
T2 sequence: T1 sequence

Molecule	binding [1]	binding result [2]
GGGCCGAACATACTCACCCGGATCGGAGGGCCGAGGACACGGTCGAACGAGGGGCATGACCCGGTGCGGGGCTTCTTGCACTCGGCATAGGCGAGTGCTAAGAATAACGTTGGCACTCGCGACCGGTGAGTGCTAGGTCGGGACGGTGAGGCCAGGCCCGTCGTCGCAGCGAGTGGCAGCGAGGACAACTTGAGCCGTCCGTCGCGGGCACTGCGCCCGGCCAGCGTAAGTAGCGGGGTTGCCGTCACCCGGTGACCCCCGTTTCATCCCCGATCCGGAGGAATCACTTCGCA (double strand) [hsp60 promoter]	no binding	–
B1	–	binds
B2	–	binds
